# B1: F1*; the commonest letter at each place (parent)
# chain: GAGACCGCAACTGAAAAGTTGTTATCACTTGTCGTAAGACACTTTGGATGGGTTGAAGTTCTGCACGTAGAAGCAAAAGGC
# Variants of: B1
# Test: fraction ligated after 30 min (ligated reads / total reads); higher = more ligase activity
# Conditions: with F1*sub RNA substrate (template-directed ligation), 42 °C
# Method in brief: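 Ligase ribozyme variants were made from oligo-pool templates by PCR amplification, T7 transcription and gel purification. After gel separation, ligated and unligated bands were reverse transcribed with barcoded primers and sequenced on a MiSeq, with core bases filtered at quality ≥20. The fraction ligated for each variant was the number of ligated reads divided by total reads.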
row,Variant,fraction ligated
1,GAGACCGCAACTGAAAAGTTGTTATCACTTGTCGTAAGACATTTTGGATGGGTTAAAGTTCTGCACGTAGAAGCAAAAGGC [C42T G55A],0.844
2,GAGACCGCAACTGAAAAGTTGTTATCACTTGTCGTAAGACATTTTGGATGGGTTCAAGTTCTGCACGTAGAAGCAAAAGGC [C42T G55C],0.797
3,GAGACCGCAACTGAAAAGTTGTTATCACTTGTCGTAAGACATTTTGGATGGGTTTAAGTTCTGCACGTAGAAGCAAAAGGC [C42T G55T],0.848
4,GAGACCGCAACTGAAAAGTTGTTATCACTTGTCGTAAGACATATTGGATGGGTTGAAGTTCTGCACGTAGAAGCAAAAGGC [C42T T43A],0.866
5,GAGACCGCAACTGAAAAGTTGTTATCACTTGTCGTAAGACATCTTGGATGGGTTGAAGTTCTGCACGTAGAAGCAAAAGGC [C42T T43C],0.828
6,GAGACCGCAACTGAAAAGTTGTTATCACTTGTCGTAAGACATGTTGGATGGGTTGAAGTTCTGCACGTAGAAGCAAAAGGC [C42T T43G],0.818
7,GAGACCGCAACTGAAAAGTTGTTATCACTTGTCGTAAGACATTATGGATGGGTTGAAGTTCTGCACGTAGAAGCAAAAGGC [C42T T44A],0.862
8,GAGACCGCAACTGAAAAGTTGTTATCACTTGTCGTAAGACATTCTGGATGGGTTGAAGTTCTGCACGTAGAAGCAAAAGGC [C42T T44C],0.855
9,GAGACCGCAACTGAAAAGTTGTTATCACTTGTCGTAAGACATTGTGGATGGGTTGAAGTTCTGCACGTAGAAGCAAAAGGC [C42T T44G],0.833
10,GAGACCGCAACTGAAAAGTTGTTATCACTTGTCGTAAGACATTTAGGATGGGTTGAAGTTCTGCACGTAGAAGCAAAAGGC [C42T T45A],0.799
11,GAGACCGCAACTGAAAAGTTGTTATCACTTGTCGTAAGACATTTCGGATGGGTTGAAGTTCTGCACGTAGAAGCAAAAGGC [C42T T45C],0.79
12,GAGACCGCAACTGAAAAGTTGTTATCACTTGTCGTAAGACATTTGGGATGGGTTGAAGTTCTGCACGTAGAAGCAAAAGGC [C42T T45G],0.557
13,GAGACCGCAACTGAAAAGTTGTTATCACTTGTCGTAAGACATTTTGGAAGGGTTGAAGTTCTGCACGTAGAAGCAAAAGGC [C42T T49A],0.791
14,GAGACCGCAACTGAAAAGTTGTTATCACTTGTCGTAAGACATTTTGGACGGGTTGAAGTTCTGCACGTAGAAGCAAAAGGC [C42T T49C],0.774
15,GAGACCGCAACTGAAAAGTTGTTATCACTTGTCGTAAGACATTTTGGAGGGGTTGAAGTTCTGCACGTAGAAGCAAAAGGC [C42T T49G],0.782
16,GAGACCGCAACTGAAAAGTTGTTATCACTTGTCGTAAGACACATTGGATGGGTTGAAGTTCTGCACGTAGAAGCAAAAGGC [T43A],0.855
17,GAGACCGCAACTGAAAAGTTGTTATCACTTGTCGTAAGACACATTGGCTGGGTTGAAGTTCTGCACGTAGAAGCAAAAGGC [T43A A48C],0.734

row,Variant,fraction ligated
1,GAGACCGCAACTGAAAAGTTGTTATCACTTGTCGTAAGACACATTGGGTGGGTTGAAGTTCTGCACGTAGAAGCAAAAGGC [T43A A48G],0.807
2,GAGACCGCAACTGAAAAGTTGTTATCACTTGTCGTAAGACACATTGGTTGGGTTGAAGTTCTGCACGTAGAAGCAAAAGGC [T43A A48T],0.774
3,GAGACCGCAACTGAAAAGTTGTTATCACTTGTCGTAAGACACATTGGATGGGTTGCAGTTCTGCACGTAGAAGCAAAAGGC [T43A A56C],0.79
4,GAGACCGCAACTGAAAAGTTGTTATCACTTGTCGTAAGACACATTGGATGGGTTGGAGTTCTGCACGTAGAAGCAAAAGGC [T43A A56G],0.782
5,GAGACCGCAACTGAAAAGTTGTTATCACTTGTCGTAAGACACATTGGATGGGTTGTAGTTCTGCACGTAGAAGCAAAAGGC [T43A A56T],0.81
6,GAGACCGCAACTGAAAAGTTGTTATCACTTGTCGTAAGACACATTGGATGGGTTGACGTTCTGCACGTAGAAGCAAAAGGC [T43A A57C],0.792
7,GAGACCGCAACTGAAAAGTTGTTATCACTTGTCGTAAGACACATTGGATGGGTTGAGGTTCTGCACGTAGAAGCAAAAGGC [T43A A57G],0.793
8,GAGACCGCAACTGAAAAGTTGTTATCACTTGTCGTAAGACACATTGGATGGGTTGATGTTCTGCACGTAGAAGCAAAAGGC [T43A A57T],0.833
9,GAGACCGCAACTGAAAAGTTGTTATCACTTGTCGTAAGACACATTAGATGGGTTGAAGTTCTGCACGTAGAAGCAAAAGGC [T43A G46A],0.789
10,GAGACCGCAACTGAAAAGTTGTTATCACTTGTCGTAAGACACATTCGATGGGTTGAAGTTCTGCACGTAGAAGCAAAAGGC [T43A G46C],0.789
11,GAGACCGCAACTGAAAAGTTGTTATCACTTGTCGTAAGACACATTTGATGGGTTGAAGTTCTGCACGTAGAAGCAAAAGGC [T43A G46T],0.81
12,GAGACCGCAACTGAAAAGTTGTTATCACTTGTCGTAAGACACATTGAATGGGTTGAAGTTCTGCACGTAGAAGCAAAAGGC [T43A G47A],0.804
13,GAGACCGCAACTGAAAAGTTGTTATCACTTGTCGTAAGACACATTGCATGGGTTGAAGTTCTGCACGTAGAAGCAAAAGGC [T43A G47C],0.515
14,GAGACCGCAACTGAAAAGTTGTTATCACTTGTCGTAAGACACATTGTATGGGTTGAAGTTCTGCACGTAGAAGCAAAAGGC [T43A G47T],0.643
15,GAGACCGCAACTGAAAAGTTGTTATCACTTGTCGTAAGACACATTGGATAGGTTGAAGTTCTGCACGTAGAAGCAAAAGGC [T43A G50A],0.267
16,GAGACCGCAACTGAAAAGTTGTTATCACTTGTCGTAAGACACATTGGATCGGTTGAAGTTCTGCACGTAGAAGCAAAAGGC [T43A G50C],0.153
17,GAGACCGCAACTGAAAAGTTGTTATCACTTGTCGTAAGACACATTGGATTGGTTGAAGTTCTGCACGTAGAAGCAAAAGGC [T43A G50T],0.614
